Reference: article PMC3606321, “Identification and characterization of two distinct PPP1R2 isoforms in human spermatozoa” (BMC Cell Biology, 2013)

What was measured:
[1] = target: purified recombinant PPP1CC2 (UniProt P36873-2 1-337); assay: cell-based or functional assay
[2] = target: purified recombinant PPP1CC1 (UniProt P36873 1-323); assay: cell-based or functional assay
purified recombinant PPP1CC1, sequence (P36873 whole entry): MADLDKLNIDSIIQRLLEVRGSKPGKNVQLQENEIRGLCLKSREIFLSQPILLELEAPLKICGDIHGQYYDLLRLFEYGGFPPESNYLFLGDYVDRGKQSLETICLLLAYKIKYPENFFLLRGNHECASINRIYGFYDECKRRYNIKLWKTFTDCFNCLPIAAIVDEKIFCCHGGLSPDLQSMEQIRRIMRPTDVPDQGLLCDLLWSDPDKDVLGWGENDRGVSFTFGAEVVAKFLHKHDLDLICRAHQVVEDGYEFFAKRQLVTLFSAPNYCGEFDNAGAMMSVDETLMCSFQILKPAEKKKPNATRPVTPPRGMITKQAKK

purified recombinant PPP1CC2, sequence (P36873 other isoform, or with tags, fused parts or gaps): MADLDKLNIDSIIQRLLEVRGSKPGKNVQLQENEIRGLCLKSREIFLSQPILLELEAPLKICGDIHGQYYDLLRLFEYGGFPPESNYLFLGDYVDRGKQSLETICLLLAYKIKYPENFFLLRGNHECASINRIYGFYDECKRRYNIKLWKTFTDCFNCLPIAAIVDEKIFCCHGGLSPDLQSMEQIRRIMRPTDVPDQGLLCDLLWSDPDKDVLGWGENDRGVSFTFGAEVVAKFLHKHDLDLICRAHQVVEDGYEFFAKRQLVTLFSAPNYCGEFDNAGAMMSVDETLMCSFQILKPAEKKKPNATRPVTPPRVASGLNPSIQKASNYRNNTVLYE

B1: His-PPP1R2P3 (natural protein, human, UniProt Q6NXS1 1-205, looked up)
chain: MAASTASHRPIKGILKNKTSTTSSMVASAEQPRRSVDEELSKKSQKWDEINILATYHPADKGYGLMKIDEPSPPYHSMMGDDEDACRDTETTEAMAPDILAKKLAAAEGLEPKYRIQEQESSGEEDSDLSPEEREKKRQFEMRRKLHYNEGLNIKLARQLISKDLHDDDEDEEMLETADGESMNTEESNQGSTPSDQQQNKLRSS
- IC50 of inhibition of PPP1CC2 in the phosphorylase phosphatase assay ([32P]phosphorylase a as substrate) [1]: 0.09 nM
- IC50 of inhibition of PPP1CC1 in the phosphorylase phosphatase assay ([32P]phosphorylase a as substrate) [2]: 0.73 nM
